Measured values as given in a protein production outcome set (Wang et al. 2014).

Experiment: label from the status in PepcDB records

In the case of “MTQQTFLVEIGTEELPPKALRSLAESFAANFTAELNNANLPYGEVIWYAAPRRLALKVTNLSATQADREVEKRGPAIAQAFDAEGKPSKAAEGWARGCGITVDQAERLVTDKGEWLLYRAHVKGQSAQLLLAGMVNTALSKLPIPKLMRWGDKDTQFVRPVHTVTMLLGSEVIPGTVLGIDSDRIIRGHRFMGEPEFTLDNADQYPQVLQERGKVIADYELRKAIIKRDAELAAQKIGGVADLSESLLEEVASLVEWPVVLTAKFEEKFLAVPAEALVYTMKGDQKYFPVYDTAGNLLPNFIFVANIESKDPQQIISGNEKVVRPRLADAEFFFKTDRKKRLEDNLPRLETVLFQQQLGTLRDKTDRIQALAGWVAAQIGADVNHATRAGLLSKCDLMTNMVFEFTDTQGVMGMHYARHDGEAEDVAVALNEQYQPRFAGDDLPSNPVACALAIADKMDTLAGIFGIGQHPKGDKDPFALRRAALGVLRIIVEKNLPLDLQTLTEEAVRLYGSKLTNTKVVDEVIEFMLGRFRAWYQDEGHSVDTIQAVLARRPTRPADFDARVKAVTYFRTLDAAAALAAANKRVSNILAKSTDKLNDHVRASVLKEPAELKLATHLVVLRDKLEPVFAAGQYQEALVELAALRETVDEFFESVMVMDEDDAVRVNRLTLLSKLRELFLQVADISLLQ”, the protein production is reported as “not failed”.

With “MVHEKKKMRKNHKKITHKGKKITTGAASVLLGAGIVVGANARPVKATSSREDEITEVDTINVISSETEKADVEQRTDTTETVETEGNVDNTNTEVSVPIDETINTEAQAANNTTQVESTVEDTTQEETTETQQNPSVDNQEPVLSDPPSVESPEDSATEVTTTKTTDEVKNAADEANKENKDKLDAEINKAEDNGHTVTQDGDKVYKADATNIDKIIEDLNQFTADQITDIETKLAKYKEELEAYKADQVRYEAELKNYQTAKDAYVKKLEEWGLYKPGDIDPSDISQSLILGEEKNSKVEVLNKGSVVDEGTGSILNGLLNHFYTIDEKFDGEFLKLQYTNLENITYMGKNIDSIQIIFSGWNPNYKGKNADKRTSGIYFSDKLTDGFFYVNSDGVTMEMILFENGKTINLDKNSAYITAGSLNSQGTGNDYIEKAEIFNNSSEYGGSAVTFQDSFIRRHDGTYGGDVLYADQNIEVLAVYPGKDQTLEDAIEEQKKLALEAGWKQEIIDKFINWDSSTDRSKAIFGAGAFMVYGNKIKIRFSNGIGSAWATYSTSIPGMAFREEKPKEPTVPEPPKLDLTYTPGHIELSKSNVHIHYVDVHDTAQAGKNDSFVPDDGIELDDHVDHQLDLLIGTGYNHDLWNFEDAGYILAEEIKDGVQNGTVIKDDQHHYVYLKHKFIPTTDEENEKKDVNQVIHYVYDATGETAYKDYHAVTLHFIKSGQKDVVNGNIIWGNWTLAQDFAGVKSPSIEGYHLKDKNDDVVGPYTIEVTEKNYQNNLDVEYTVRYVANATQELNLKKEVNQVIHYIYENGTKAHDDYHALTLLFEKKGIKDLETGEETWGEWTKTQTFVVVKSPDIQNYIADRLEVGPYEITVTDENYKTNLDKDDIVIYRARIEEVTRDKVVNQVIHYIYEDGSTARPDHVSVKLVFTQTGVKNLATNTTNWNGEWTKTQTFVVVKSPEIEGYTADREEVGPYDITVTNENYNDKLDKEDTVIYRANTNVPDNPDPDNPTPDNPDPDNPTPDTPTPDPTPGDDEEIATPPLPEDEIGNYPSQSDEDDEEERTAPHATGKETRSGTNKNNARVISLENAGSDDSVTPENVSTEATDKTDEKQTTVNSTNEKTLPATGEEKDDFAKVMSGLAAALGITGLAVTSKRRKATAKRSKKDKKNGK” the protein production was “failed”.

In the case of “MTIKTLDISPVGRVEGDLDVRVEIEDGQVVNAWTHAELFRGFEIILRGKDPQAGLIVTPRICGICGASHLTSASWALDTAWNTTVPRNAILARNLGQIVETIQSIPRYFYGLFAIDLTNKKYRSSRFYDEAVRRFAAFTGKSYELGVTISSKPVEIYALFGGQWPHSSYMVPGGVMCAPTLTDITRAWAILEYFRTNWLEPVWLGCSLERYEEIQTYDDFMDWLEADIKHRESDLGFYWRMGLDIGLDRYGAGVGKYVSWGYLPHEDKYQKPTIEGRNAAMIMKSGVYDSFSDTHTLMDHTFARENTTHSWYDEGNADVHPFDRTTKPTQKNTKDFKNAYSWSTAVLHQDFGRLEVGPLARQLVAGGQHGESWQHYDGFILDAFQKMGGASIHLRQLARVHEIVKLYRQAERCLREFVLNDPWYIKPKEKDGRGWGATEASRGSLCHWIDIEGGKIKNYQVIAATTWNVGPRDSEGVRGPIEEALIGTPIEDSRDPVEVGHVARSFDSCLVCTVHAHDAKTGEELARFRTA”, the protein production is reported as “failed”.
